Data taken from patent US20190153055A1.

Molecular target: receptor CCR1 (UniProt P32246)
Test: cell-based or functional assay

Chain of UniProt P32246 (P32246 whole entry): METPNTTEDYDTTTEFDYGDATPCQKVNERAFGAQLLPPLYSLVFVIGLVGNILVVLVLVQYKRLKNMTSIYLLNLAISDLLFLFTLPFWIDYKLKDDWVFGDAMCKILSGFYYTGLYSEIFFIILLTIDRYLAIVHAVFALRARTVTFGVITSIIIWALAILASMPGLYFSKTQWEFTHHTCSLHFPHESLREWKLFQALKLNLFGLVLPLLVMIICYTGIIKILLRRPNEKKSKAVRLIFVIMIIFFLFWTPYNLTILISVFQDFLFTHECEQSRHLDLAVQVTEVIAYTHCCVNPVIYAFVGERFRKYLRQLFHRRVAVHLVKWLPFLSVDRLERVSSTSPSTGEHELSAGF

Work on “CCL3 (D27A, Δ1, CCL3α) (from UniProt P10147 24-92) (ligand)” yielded a reactivity of the CCR1 receptor (Tango CCR1-bla U20S reporter cells, Blue/Green Emission ratio) of 0.63 nM.
